The labels stand for the following.
B1: Decapping nuclease din1 (Schizosaccharomyces pombe (strain ATCC 38366 / 972)), O13836 (parent)
chain: MLREFSFYDVPPAHVPPVSEPLEIACYSLSRDRELLLDDSKLSYYYPPPLFSDLNTGFPNRFHPPKSDPDPISIVKDVLMTKGIQMNSSFLTWRGLITKIMCAPLDPRNHWETYLVMDPTSGIIMMEERTRSETSYANQDRMCYWGYKFEAISTLPEIWDACSRDQIEQRDNQDVVPDEQYCSIVKINIGKSKLILAGEVDCIWDKKPCSAKESDVHSDDGTIEEDASNAENPNLHYVELKTSKKYPLENYGMRKKLLKYWAQSFLLGIGRIIIGFRDDNGILIEMKELFTHQIPKMLRPYFKPNDWTPNRLLVVLEHALEWIKQTVKQHPPSTEFTLSYTGGSKLVLRQII
partner: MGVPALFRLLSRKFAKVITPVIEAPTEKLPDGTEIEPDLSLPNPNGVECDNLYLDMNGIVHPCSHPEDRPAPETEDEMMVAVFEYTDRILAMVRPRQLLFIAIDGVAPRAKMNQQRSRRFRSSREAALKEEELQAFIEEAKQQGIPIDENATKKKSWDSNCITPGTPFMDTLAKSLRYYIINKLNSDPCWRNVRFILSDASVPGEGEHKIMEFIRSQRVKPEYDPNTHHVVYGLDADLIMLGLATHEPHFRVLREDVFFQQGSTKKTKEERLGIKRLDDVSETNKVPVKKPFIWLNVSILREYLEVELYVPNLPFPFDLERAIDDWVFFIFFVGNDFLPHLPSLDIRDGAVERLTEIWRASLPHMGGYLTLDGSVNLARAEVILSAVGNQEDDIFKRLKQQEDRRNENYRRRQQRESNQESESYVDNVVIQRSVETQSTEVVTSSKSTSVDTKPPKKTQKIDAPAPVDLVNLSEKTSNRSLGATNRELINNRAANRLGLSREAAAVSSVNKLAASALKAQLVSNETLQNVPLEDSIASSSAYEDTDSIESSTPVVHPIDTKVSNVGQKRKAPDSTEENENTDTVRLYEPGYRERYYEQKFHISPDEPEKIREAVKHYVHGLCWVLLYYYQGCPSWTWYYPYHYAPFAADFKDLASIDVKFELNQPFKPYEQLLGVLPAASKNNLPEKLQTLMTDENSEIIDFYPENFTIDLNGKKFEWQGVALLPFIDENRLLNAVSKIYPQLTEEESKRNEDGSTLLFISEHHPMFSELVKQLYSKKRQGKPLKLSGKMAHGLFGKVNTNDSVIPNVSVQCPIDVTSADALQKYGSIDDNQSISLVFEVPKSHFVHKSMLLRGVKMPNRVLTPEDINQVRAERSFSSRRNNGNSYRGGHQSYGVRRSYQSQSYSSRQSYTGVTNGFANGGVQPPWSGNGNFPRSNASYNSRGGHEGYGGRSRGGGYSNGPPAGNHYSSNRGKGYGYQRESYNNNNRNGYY

Variants of B1 are the subject of this test. The note with it: with xrn2_schpo dhp1, P40848.
Turning to R164A, the “effect of a mutation on the interaction” value was “decreasing interaction”.

For the variant W204A, the “effect of a mutation on the interaction” value was “decreasing interaction”.

Regarding W159A, the “effect of a mutation on the interaction” value is on record as “decreasing interaction”.

(Values after IntAct's records for PubMed 19194460.)
